Results taken from patent publication US20220395553A1, “CXCR4 ANTAGONIST PEPTIDES” (COHBAR, INC., priority 2019, published 2022).
Square brackets hold non-standard residues; d marks the D form. Ends that are not written are not given here.

biological target: SNAP tagged-CXC4 receptor labeled with terbium (Tag-lite CXCR4 cells, HEK293) (UniProt P61073); assay: HTRF competition on Tag-lite CXCR4 HEK293 cells; competitor labelled CXCL12
Sequence (P61073 whole entry): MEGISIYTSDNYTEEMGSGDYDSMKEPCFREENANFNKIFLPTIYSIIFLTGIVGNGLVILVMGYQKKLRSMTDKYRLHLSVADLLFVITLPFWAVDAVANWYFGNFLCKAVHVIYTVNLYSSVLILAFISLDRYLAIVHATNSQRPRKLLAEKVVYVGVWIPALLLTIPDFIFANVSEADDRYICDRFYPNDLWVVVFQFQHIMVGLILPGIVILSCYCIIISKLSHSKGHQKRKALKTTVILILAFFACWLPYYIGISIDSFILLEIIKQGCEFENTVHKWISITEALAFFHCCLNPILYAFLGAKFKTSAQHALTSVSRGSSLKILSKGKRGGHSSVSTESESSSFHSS

Binder | Percent Inhibition of CXCR4/CXCL12 Binding (400 nM peptide) [%] | IC50 [nM]
LERYHHT[dA]RSSLRPYTK [SEQ ID NO: 40] | 76 | –
LRRYHHSVRSSLRPYTK-NH2 [SEQ ID NO: 16] | -2 | 573

The next lines start with the values.

Percent Inhibition of CXCR4/CXCL12 Binding (400 nM peptide) [%] | IC50 [nM] | Binder
77 | 7 | LERYHHS[dA]RSSLRPYTK-NH2 (N-terminus assumed; SMILES CC(C)C[C@H](NC(=O)[C@H](CO)NC(=O)[C@H](CO)NC(=O)[C@H](CCCNC(=N)N)NC(=O)[C@@H](C)NC(=O)[C@H](CO)NC(=O)[C@H](Cc1c[nH]cn1)NC(=O)[C@H](Cc1c[nH]cn1)NC(=O)[C@H](Cc1ccc(O)cc1)NC(=O)[C@H](CCCNC(=N)N)NC(=O)[C@H](CCC(=O)O)NC(=O)[C@@H](N)CC(C)C)C(=O)N[C@@H](CCCNC(=N)N)C(=O)N1CCC[C@H]1C(=O)N[C@@H](Cc1ccc(O)cc1)C(=O)N[C@H](C(=O)N[C@@H](CCCCN)C(N)=O)[C@@H](C)O) [SEQ ID NO: 57]
79 | 5 | LERYHHSVRSSLRPYTK-NH2 [SEQ ID NO: 56]
